The assay deals with T1, GST-ABI1 (Arabidopsis thaliana, UniProt P49597 1-434).
T1 construct: ABI1 (ABA-Insensitive 1), clade A protein phosphatase 2C, Arabidopsis thaliana; also called ABA-Insensitive 1; not shown: GST, N-terminal, kept
T1 sequence (looked up): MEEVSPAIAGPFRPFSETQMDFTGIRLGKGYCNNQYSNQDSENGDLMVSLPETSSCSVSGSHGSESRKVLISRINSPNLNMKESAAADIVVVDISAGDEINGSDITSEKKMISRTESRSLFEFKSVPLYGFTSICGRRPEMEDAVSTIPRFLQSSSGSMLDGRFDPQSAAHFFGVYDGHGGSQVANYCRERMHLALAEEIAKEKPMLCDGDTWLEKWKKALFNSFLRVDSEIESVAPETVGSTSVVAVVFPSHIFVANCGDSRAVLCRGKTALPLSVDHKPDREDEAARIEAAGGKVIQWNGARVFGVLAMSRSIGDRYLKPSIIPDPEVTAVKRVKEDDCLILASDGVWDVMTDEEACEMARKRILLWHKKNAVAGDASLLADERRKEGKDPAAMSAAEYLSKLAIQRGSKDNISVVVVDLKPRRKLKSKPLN
Kind of assay: pull-down; GST-ABI1 incubated with HIS-PYR1 variants in the absence or presence of 30 uM ABA; western blot with anti-GST and anti-HIS. Conditions: both partners purified.

Positions count from the first letter of the chain named.

B1: HIS-tagged PYR1 recombinant protein (natural protein, Arabidopsis thaliana, UniProt O49686 1-191, looked up)
chain: MPSELTPEERSELKNSIAEFHTYQLDPGSCSSLHAQRIHAPPELVWSIVRRFDKPQTYKHFIKSCSVEQNFEMRVGCTRDVIVISGLPANTSTERLDILDDERRVTGFSIIGGEHRLTNYKSVTTVHRFEKENRIWTVVLESYVVDMPEGNSEDDTRMFADTVVKLNLQKLATVAEAMARNSGDGSGSQVT
notes: PYR1 (PYRABACTIN …1), Arabidopsis thaliana, 191 amino acids; also called HIS-PYR1; PYRABACTIN …1; not shown: His, N-terminal, kept
As for B1, the binding result was “binds”.

B2: HIS-PYR1DD (phosphomimetic PYR1) (natural protein, Arabidopsis thaliana, UniProt O49686 1-191, looked up)
chain: B1 chain with T137D, S142D
notes: PYR1, Arabidopsis thaliana, 191 amino acids, T137 and S142 mutagenized to aspartic acid; not shown: His, N-terminal, kept
Take B2: the binding result was “binds”.

The record behind these values is paper PMC9083366, “Brassinosteroid-Insensitive 1-Associated Receptor Kinase 1 Modulates Abscisic Acid Signaling by Inducing PYR1 Monomerization and Association With ABI1 in Arabidopsis” (Frontiers in Plant Science, 2022).
